Test results as given in PMC11221534, “A minimal RNA substrate with dual fluorescent probes enables rapid kinetics and provides insight into bacterial RNase P active site interactions”.

T1: E. coli RNase P holoenzyme, P RNA U69A (Escherichia coli, UniProt P0A7Y8 1-119)
T1 sequence: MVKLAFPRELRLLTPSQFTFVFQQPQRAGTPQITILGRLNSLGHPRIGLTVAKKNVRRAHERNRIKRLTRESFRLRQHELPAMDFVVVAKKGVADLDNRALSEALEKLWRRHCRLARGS

T2: E. coli RNase P holoenzyme, P RNA C70U (Escherichia coli, UniProt P0A7Y8 1-119)
T2 sequence: T1 sequence

T3: E. coli RNase P holoenzyme (C5 protein + P RNA), wild type (Escherichia coli, UniProt P0A7Y8 1-119)
T3 sequence: T1 sequence

B1: 5'Cy3-MD1 (dsRNA)
RNA 1: ACCCAAAAUGGUCCGGGCGGG
RNA 2: CCCGUCCGGACCGCCA
modifications: 2-aminopurine at position 8 (N-2) as printed, written A; Table 1 appears to swap the Cy3 between 5'Cy3-MD1 and 5'Ap(-2)-MD1
B2: 5'Ap(-2)-MD1 (dsRNA)
RNA 1: ACCCAAAAUGGUCCGGGCGGG
RNA 2: CCCGUCCGGACCGCCA
modifications: 2-aminopurine at position 8 (N-2), written A; Table 1 prints a 5' Cy3 (apparently swapped with 5'Cy3-MD1)

Assays:
[1] = target: T1, E. coli RNase P holoenzyme, P RNA U69A; test: single-turnover kinetics by PAGE (K'); 17.5 mM Mg2+; imprecise, very slow cleavage; 50 mM MES pH 6, 100 mM NaCl, 17.5 mM MgCl2 (or CaCl2), 0.015% Triton X-100 reduced, 37 C (PAGE single turnover); stopped-flow in similar buffer; conditions: protein: recombinant; label: 5' Cy3 on strand 1; 12 bp continuous helix with one U-G wobble; 5' overhang 9 nt, 3' overhang 4 nt (GCCA)
[2] = target: T2, E. coli RNase P holoenzyme, P RNA C70U; test: as above; conditions: protein: recombinant; label: 5' Cy3 on strand 1; 12 bp continuous helix with one U-G wobble; 5' overhang 9 nt, 3' overhang 4 nt (GCCA)
[3] = target: T3, E. coli RNase P holoenzyme (C5 protein …); test: single-turnover kinetics by PAGE (K' from kobs vs [E]); 17.5 mM Mg2+, pH 6; K' approximates Kd; 50 mM MES pH 6, 100 mM NaCl, 17.5 mM MgCl2 (or CaCl2), 0.015% Triton X-100 reduced, 37 C (PAGE single turnover); stopped-flow in similar buffer; conditions: protein: recombinant; label: 5' Cy3 on strand 1; 12 bp continuous helix with one U-G wobble; 5' overhang 9 nt, 3' overhang 4 nt (GCCA)
[4] = target: T3, E. coli RNase P holoenzyme (C5 protein …); test: stopped-flow 2Ap fluorescence, global fit (k-1/k1); 17.5 mM Mg2+; k1 0.43e6 M-1 s-1, k-1 0.084 s-1; 50 mM MES pH 6, 100 mM NaCl, 17.5 mM MgCl2 (or CaCl2), 0.015% Triton X-100 reduced, 37 C (PAGE single turnover); stopped-flow in similar buffer; conditions: protein: recombinant; label: 2-aminopurine; 12 bp continuous helix with one U-G wobble; 5' overhang 9 nt, 3' overhang 4 nt (GCCA)

Row | Binder | Kd [1] [nM] | Kd [2] [nM] | Kd [3] [nM] | Kd [4] [nM]
1 | B1 | < 250 | < 250 | 189 | 
2 | B2 |  |  |  | 195
